Source: publication PMC5726920

What was measured:
[1] = target: 10 kDa heat shock protein; assay: native MS
[2] = target: triosephosphate isomerase, isoform 2, initiator methionine removed; assay: native MS

Chain of triosephosphate isomerase, isoform 2, initiator methionine removed (enzyme) (P60174 2-249): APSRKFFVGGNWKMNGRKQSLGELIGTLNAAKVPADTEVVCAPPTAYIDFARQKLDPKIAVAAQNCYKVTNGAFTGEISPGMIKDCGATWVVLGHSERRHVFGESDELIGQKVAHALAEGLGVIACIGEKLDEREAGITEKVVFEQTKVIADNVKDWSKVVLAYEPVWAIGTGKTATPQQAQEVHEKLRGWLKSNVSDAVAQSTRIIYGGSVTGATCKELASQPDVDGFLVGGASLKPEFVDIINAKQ

stoichiometry N [1] | stoichiometry N [2] | Substance
7 |  | 10 kDa heat shock protein (natural protein)
 | 2 | triosephosphate isomerase, isoform 2, initiator methionine removed (enzyme)
